Data on ten molecules can be found in patent publication US20240018256A1 (JUNO THERAPEUTICS, published 2024).

In test [1] the target is T1, human CD19 (human, UniProt P15391 20-556).
T1 sequence: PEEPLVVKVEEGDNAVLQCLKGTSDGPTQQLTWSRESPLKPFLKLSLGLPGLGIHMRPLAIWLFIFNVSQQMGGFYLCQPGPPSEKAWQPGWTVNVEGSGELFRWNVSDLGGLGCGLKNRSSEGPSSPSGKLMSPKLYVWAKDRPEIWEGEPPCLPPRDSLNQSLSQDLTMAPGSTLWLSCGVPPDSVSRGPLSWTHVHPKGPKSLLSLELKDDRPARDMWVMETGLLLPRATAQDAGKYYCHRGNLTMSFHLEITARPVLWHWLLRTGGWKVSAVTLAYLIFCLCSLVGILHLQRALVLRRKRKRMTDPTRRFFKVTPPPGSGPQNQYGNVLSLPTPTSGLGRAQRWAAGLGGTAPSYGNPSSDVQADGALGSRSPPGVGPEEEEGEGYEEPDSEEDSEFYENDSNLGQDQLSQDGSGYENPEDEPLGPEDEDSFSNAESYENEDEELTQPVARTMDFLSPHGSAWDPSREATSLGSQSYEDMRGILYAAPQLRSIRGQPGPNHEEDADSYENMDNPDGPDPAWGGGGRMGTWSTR
Briefly: flow cytometry, scFv titrated on CD19-expressing K562 cells (FIG. 4, another plate). A general note: In flow cytometry, cells or beads pass a laser one at a time.

Test [2] concerns the target T1, human CD19. Kind of test: flow cytometry, scFv titrated on CD19-expressing K562 cells (FIG. 3A).
Test [3] has as its target T1, human CD19. Kind of test: flow cytometry competition for binding with FMC63, summary (n = 3). Here is the method:
(§1) Competition binding assays were performed to assess competition of various antibodies for binding to CD19-expressing cells.

In test [4] the target is T1, human CD19. Briefly: flow cytometry on CD19-expressing cells, summary (n = 7).
Test [5] addresses T1, human CD19. Kind of test: flow cytometry, scFv titrated on CD19-expressing K562 cells (FIG. 4, one plate).
Test [6] addresses T1, human CD19. Briefly: flow cytometry competition with labeled FMC63 IgG on CD19-expressing cells (FIG. 5B). Here is the method:
as §1

The target in test [7] is T1, human CD19. Kind of test: flow cytometry, scFv titrated on CD19-expressing K562 cells (FIG. 3B).
For test [8], the target named is T1, human CD19. Kind of test: flow cytometry on CD19-expressing cells, summary (n = 5).
Test [9] addresses T1, human CD19. Kind of test: flow cytometry on CD19-expressing cells (n = 7). From the text:
(§2) Various clones were titrated and their binding affinity (EC50) to various CD19-expressing cells assessed by flow cytometry.

The target in test [10] is T1, human CD19. Kind of test: flow cytometry competition for binding with FMC63, summary (n = 1).
Test [11] addresses T1, human CD19. Kind of test: flow cytometry competition for binding with FMC63 (n = 3).
Test [12] deals with T1, human CD19. Kind of test: flow cytometry competition for binding with FMC63 (n = 6).
In test [13] the target is T1, human CD19. Kind of test: flow cytometry on CD19-expressing cells (n = 4).
In test [14] the target is T1, human CD19. Briefly: flow cytometry, in vitro-translated FLAG-tagged scFv on CD19-expressing vs mock transfected K562 cells (FIG. 8D).
Test [15] addresses T1, human CD19. Briefly: flow cytometry on CD19-expressing cells, summary (n = 1).
For test [16], the target named is T1, human CD19. Kind of test: flow cytometry competition for binding with FMC63 (n = 1).
Test [17] addresses T1, human CD19. Briefly: flow cytometry on CD19-expressing cells (n = 1).
Source text: as §2

Test [18] concerns the target T1, human CD19. Kind of test: flow cytometry competition for binding with FMC63.
The target of test [19] is T1, human CD19. Kind of test: flow cytometry on Ramos cells; probe concentration said to be about its EC50.
Test [20] deals with T1, human CD19. Kind of test: flow cytometry, HIS-tagged scFv bacterial supernatant on CD19-transfected HEK293 cells (FIG. 8C). The source says: A third scFv library was generated by shuffling the VH sequences from the selection in (a) with the VL sequences resulting from the selection in (b). […] Binding by the selected scFv clones to CD19-expressing cells was confirmed by flow cytometry using bacterially-produced supernatant. The selected scFv pools were cloned into E. coli expression vectors and produced as HIS-tagged scFvs. Binding of individual clones to CD19-transfected HEK293 cells was detected with anti-HIS-Alexa647 conjugate by flow cytometry.

For test [21], the target named is T1, human CD19. Briefly: flow cytometry competition for binding with FMC63 (n = 2).
For test [22], the target named is T1, human CD19. Briefly: flow cytometry on CD19-expressing cells (n = 5).
Test [23] has as its target T1, human CD19. Kind of test: flow cytometry on CD19-expressing cells, summary.
The target of test [24] is T1, human CD19. Briefly: flow cytometry competition for binding with FMC63, summary (n = 2).
Test [25] deals with T1, human CD19. Briefly: flow cytometry, scFv titrated on CD19-expressing K562 cells (FIG. 3C).

Residue numbers refer to the chain shown, from its start. Numbers in names are those of the source.

B1: Clone 18 scFv (scFv)
scFv: EVQLVESGGGLVQPGRSLRLSCAASGFTFDDYAMHWVRQAPGKGLEWVSGISWNSGRIGYADSVKGRFTISRDNAKNSLFLQMNSLRAEDTAVYYCARDQGYHYYDSAEHAFDIWGQGTVVTVSSGGGGSGGGGSGGGGSQSALTQPRSVSGFPGQSVTISCTGTTSDDVSWYQQHPGKAPQLMLYDVSKRPSGVPHRFSGSRSGRAASLIISGLQTEDEADYFCCSYAGRYNSVLFGGGTKLTVL
notes: Human scFv, VH-(G4S)3-VL
In general, EC50 refers to the concentration that produces a half-maximal response. Read a high EC50 as weaker potency. For orientation: IC50 means the concentration that inhibits the measured activity by half. A lower IC50 goes with greater potency. In the case of B1, the EC50 with human CD19 [1] stood at 3.11 nM; with human CD19 [2], 3.79 nM; in the test with human CD19 [4], 4.1 nM; with human CD19 [5], 4.79 nM; with human CD19 [7], 7.1 nM. For the same molecule, the IC50 in the test with human CD19 [3] was found to be 20.1 nM; in the test with human CD19 [6], 24 nM.

B2: Clone 18B scFv (scFv)
scFv: B1 scFv with C226S
notes: Clone 18 with cysteine to serine at Kabat position 89 of VL; also called germline variant of clone 18
In the case of B2, the figures for the EC50 with human CD19 [8], with human CD19 [9] and with human CD19 [7] were 5.4 nM, 4.9 nM and 9.3 nM, respectively. The IC50 with human CD19 [10] was determined as 28 nM; with human CD19 [11], 32.9 nM.

B3: Clone 488 scFv (scFv)
scFv: EVQLVQSGGGLVQPGRSLRLSCAASGFTFDDYAMHWVRQAPGKGLEWVSGISWNSGSIGYADSVKGRFTISRDNAKNSLYLQMNSLRAEDTAVYYCARDQGYHYYDSAEHAFDIWGQGTVVTVSSGGGGSGGGGSGGGGSEIVLTQSPATLSLSPGETATLSCRASQSINHYLAWYQQKPGQAPRLLIYDASNRATGIPARFSGSGSGTDFTLTISSLEPEDFATYYCQQSYSHPRMYTFGQGTKLDIK
notes: Human scFv
For the molecule B3, the IC50 with human CD19 [12] is 6.1 nM. The molecule further gave an EC50 with human CD19 [13] of 2.9 nM.

B4: Clone 213 scFv (scFv)
scFv: B3 scFv with E1Q, L11V, D247E
In the case of B4, the binding result with human CD19 [14] was “binds”.

B5: Clone 5 scFv (scFv)
scFv: EVQLVESGGGLVQPGRSLRLSCAASGFTFDDYAMHWVRQAPGKGLEWVSGISWNSGRIGYADSVKGRFTISRDNAKNSLFLQMNSLRAEDTAVYYCARDQGYHYYDSAEHAFDIWGQGTMVTVSSGGGGSGGGGSGGGGSSYELTQDPAVSVALGQTVRITCQGDSLRSYYASWYQQKPGQAPVLVIYDKNNRPSGIPDRFSGSSSGNTASLTITGAQAEDEADYYCNSRDSSGNNWVFGGGTKLTVL
notes: Human scFv, VH-(G4S)3-VL
Regarding B5, the EC50 with human CD19 [15], in the test with human CD19 [5] and with human CD19 [17] was 15.8 nM throughout. For the same molecule, the IC50 with human CD19 [10] and in the test with human CD19 [16] was 50 nM each time.

B6: Clone 835 scFv (scFv)
scFv: EVQLVESGGGLVQPGRSLRLSCAASGFTFDDYAMHWVRLAPGKGLEWVSGISWNSGRIGYADSVKGRFTISRDNAKNSLFLQMNSLRAKDTAVYYCARDQGYHYYDSAEHAFDIWGQGTMVTVSSGGGGSGGGGSGGGGSQSVLTQPRSVSGSPGQSVTISCTGPISGVGDYTSVSWYQHYPGKTPKLIIYDVTQRPSGVPNRFSGSKSGNTASLTISGLQADDEADYYCCSYEAPTHTYVFGTGTKLTVL
notes: Human scFv
In turn, B6 yielded an EC50 in the test with human CD19 [17] of 71.8 nM. Also, the IC50 in the test with human CD19 [18] is > 200 nM.

B7: SJ25C1 IgG1 (antibody, V domains shown)
VH: EVKLQQSGAELVRPGSSVKISCKASGYAFSSYWMNWVKQRPGQGLEWIGQIYPGDGDTNYNGKFKGQATLTADKSSSTAYMQLSGLTSEDSAVYFCARKTISSVVDFYFDYWGQGTTVTVSS
VL: DIELTQSPKFMSTSVGDRVSVTCKASQNVGTNVAWYQQKPGQSPKPLIYSATYRNSGVPDRFTGSGSGTDFTLTITNVQSKDLADYFCQQYNRYPYTSGGGTKLEI
notes: Murine IgG1, FITC-labeled in the assay; also called FITC-labeled SJ25C1
Take B7: the EC50 with human CD19 [19] was ~0.5 nM.

B8: Clone 440 scFv (scFv)
scFv: QVQLVESGGGLVQPGRSLRLSCAASGFTFDDYAMHWVRQAPGKGLEWVSGISWNSGRIGYADSVKGRFTISRDNAKNSLFLQMNSLRAEDTAVYYCARDQGYHYYDSAEHAFDIWGQGTVVTVSSGGGGSGGGGSGGGGSQSALTQPASVSGSPGHSITISCTGTRSDVGGFDYVSWYQHNPGKAPKLIIYDVTKRPSGVSNRFSGAKSGITASLTISGLQAEDEADYYCTSYRPGPTFVFGTGTKLDIK
notes: HIS- or FLAG-tagged
With B8, the binding result with human CD19 [20] is recorded as “binds”.

B9: Clone 17 scFv (scFv)
scFv: EVQLVESGGGLVQPGRSLRLSCAASGFTFDDYAMHWVRQAPGKGLEWVSGISWNSGRIGYADSVKGRFTISRDNAKNSLFLQMNSLRAEDTAVYYCARDQGYHYYDSAEHAFDIWGQGTMVTVSSGGGGSGGGGSGGGGSQSALTQPASVSGSPGQSITIFCTGTSSDVGGYNYVSWYQQLPGTAPKLLIYSNNQRPSGVPDRFSGSKSGTSASLAISGLRSEDEADYYCAAWDDSLSVVFGGGTKLTVL
notes: Human scFv, VH-(G4S)3-VL
As for B9, the IC50 in the test with human CD19 [21] and in the test with human CD19 [24] was 35.4 nM in each case. Besides, the EC50 in the test with human CD19 [22] is 11.6 nM; with human CD19 [2] it was 14.9 nM; with human CD19 [23], 11.7 nM; with human CD19 [5], 8.32 nM.

B10: Clone 76 scFv (scFv)
scFv: EVQLVESGGGLVQPGRSLRLSCAASGFTFDDYAMHWVRQAPGKGLEWVSGISWNSGRIGYADSVKGRFTISRDNAKNSLFLQMNSLRAEDTAVYYCARDQGYHYYDSAEHAFDIWGQGTVVTVSSGGGGSGGGGSGGGGSQSVLTQPPSVSAAPGQEVTISCSGSSSNIGNNYVSWYQQLPGTAPKLLIYDNDKRPSGIPDRFSGSKSGTSATLGITGLQTGDEADYYCGTWDGNLSAVFGGGTKVTVL
notes: Human scFv, VH-(G4S)3-VL
Turning to B10, the IC50 with human CD19 [21] and with human CD19 [24] was 18.2 nM each time. Besides, the EC50 with human CD19 [22] is 7 nM; with human CD19 [23], 8.04 nM; in the test with human CD19 [7] it was 7.9 nM; with human CD19 [25], 8.8 nM.
